Measurements taken from paper PMC7883291, “Selective cross‐linking of coinciding protein assemblies by in‐gel cross‐linking mass spectrometry” (The EMBO Journal, 2021).
Values joined by “and” are separate entries in the source; they are usually repeats but may differ in a detail not shown here. Equal values may be shown once.

Molecular target: T1, Escherichia coli GroEL chaperone (Escherichia coli, UniProt P0A6F5 2-548)
T1 construct: GroEL chaperonin, Escherichia coli; monomer band at 57 kDa, native 14-mer of 800 kDa; also called 14-mer GroEL; source: expressed and purified as previously described; copies: 14
Experiment: native gel or EMSA; BN-PAGE after incubation of unfolded gp23 (11.4 µM) with GroEL (0.8 µM) in 50 mM Tris pH 7.5, 50 mM KCl, MgCl2, 1 mM ADP, 10 min at RT; subunits in the bands quantified by iBAQ
Conditions: both partners purified

T1 sequence (P0A6F5 2-548): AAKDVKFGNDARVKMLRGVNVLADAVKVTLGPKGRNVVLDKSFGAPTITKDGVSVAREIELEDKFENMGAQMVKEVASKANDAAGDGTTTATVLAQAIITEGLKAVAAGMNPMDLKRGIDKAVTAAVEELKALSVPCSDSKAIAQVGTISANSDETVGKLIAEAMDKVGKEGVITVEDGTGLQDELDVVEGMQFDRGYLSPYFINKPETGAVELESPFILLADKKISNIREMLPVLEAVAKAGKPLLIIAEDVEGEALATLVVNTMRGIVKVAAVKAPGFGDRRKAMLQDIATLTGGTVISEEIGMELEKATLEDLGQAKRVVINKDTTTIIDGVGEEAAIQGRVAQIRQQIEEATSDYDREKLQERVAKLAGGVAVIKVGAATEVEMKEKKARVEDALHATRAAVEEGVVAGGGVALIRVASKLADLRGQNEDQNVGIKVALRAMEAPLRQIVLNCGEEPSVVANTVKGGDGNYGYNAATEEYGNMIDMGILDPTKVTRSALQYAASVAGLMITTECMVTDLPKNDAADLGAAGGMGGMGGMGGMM

B1: bacteriophage T4 capsid protein (gp23) (natural protein, UniProt P04535 1-521, looked up)
chain: MTIKTKAELLNKWKPLLEGEGLPEIANSKQAIIAKIFENQEKDFQTAPEYKDEKIAQAFGSFLTEAEIGGDHGYNATNIAAGQTSGAVTQIGPAVMGMVRRAIPNLIAFDICGVQPMNSPTGQVFALRAVYGKDPVAAGAKEAFHPMYGPDAMFSGQGAAKKFPALAASTQTTVGDIYTHFFQETGTVYLQASVQVTIDAGATDAAKLDAEIKKQMEAGALVEIAEGMATSIAELQEGFNGSTDNPWNEMGFRIDKQVIEAKSRQLKAAYSIELAQDLRAVHGMDADAELSGILATEIMLEINREVVDWINYSAQVGKSGMTLTPGSKAGVFDFQDPIDIRGARWAGESFKALLFQIDKEAVEIARQTGRGEGNFIIASRNVVNVLASVDTGISYAAQGLATGFSTDTTKSVFAGVLGGKYRVYIDQYAKQDYFTVGYKGPNEMDAGIYYAPYVALTPLRGSDPKNFQPVMGFKTRYGIGINPFAESAAQAPASRIQSGMPSILNSLGKNAYFRRVYVKGI
notes: major capsid protein gp23 of bacteriophage T4, printed size 56 kDa; Used as an unfolded substrate of GroEL; also called major capsid protein gp23; unfolded gp23; source: expressed and purified as previously described; unfolded in 8 M urea for one hour at RT
- stoichiometry N: 1 and 2
